Measured values reported in paper PMC10777313.

How the values were obtained:
mCD16-2 (mouse) = assay: BLI; Fortebio Octet, 30°C; FcγRs loaded on NTA sensors at 5 μg/mL (2.5 nm); antibodies in solution, six 2-fold dilutions; 1× PBS, 0.1% BSA, 0.02% Tween 20; steady-state equilibrium analysis
mCD32b (mouse) = mCD32b (mouse) (UniProt P08101); assay: as above
[1] = biological target: hCD32b (FcγR IIb) (human) (UniProt P31994); assay: BLI
[2] = biological target: hCD16b (FcγR IIIb) (human) (UniProt O75015); assay: BLI
UniProt O75015, sequence (O75015 17-200): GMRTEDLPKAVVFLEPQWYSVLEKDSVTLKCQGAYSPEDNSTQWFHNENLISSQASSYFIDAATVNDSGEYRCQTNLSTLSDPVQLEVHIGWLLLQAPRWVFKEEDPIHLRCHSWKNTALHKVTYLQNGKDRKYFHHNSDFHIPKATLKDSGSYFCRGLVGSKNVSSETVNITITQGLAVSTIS

[3] = biological target: hCD16a (FcγR IIIa) (human) (UniProt P08637); assay: BLI
UniProt P08637, sequence (P08637 17-208): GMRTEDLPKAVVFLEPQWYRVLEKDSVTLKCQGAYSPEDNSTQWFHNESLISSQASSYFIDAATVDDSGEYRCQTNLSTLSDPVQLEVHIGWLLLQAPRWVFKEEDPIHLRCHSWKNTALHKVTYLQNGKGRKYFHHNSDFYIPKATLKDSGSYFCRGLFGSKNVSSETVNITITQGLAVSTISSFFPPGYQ

UniProt P08101, sequence (P08101 30-330): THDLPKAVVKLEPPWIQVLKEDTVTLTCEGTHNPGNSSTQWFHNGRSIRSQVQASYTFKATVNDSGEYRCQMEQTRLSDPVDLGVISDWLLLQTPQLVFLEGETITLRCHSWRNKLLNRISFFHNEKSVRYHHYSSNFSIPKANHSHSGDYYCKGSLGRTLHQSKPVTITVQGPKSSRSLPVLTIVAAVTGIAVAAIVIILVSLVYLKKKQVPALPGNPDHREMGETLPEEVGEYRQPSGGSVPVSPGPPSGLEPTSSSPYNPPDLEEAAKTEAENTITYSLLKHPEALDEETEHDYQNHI
UniProt P31994, sequence (P31994 43-310): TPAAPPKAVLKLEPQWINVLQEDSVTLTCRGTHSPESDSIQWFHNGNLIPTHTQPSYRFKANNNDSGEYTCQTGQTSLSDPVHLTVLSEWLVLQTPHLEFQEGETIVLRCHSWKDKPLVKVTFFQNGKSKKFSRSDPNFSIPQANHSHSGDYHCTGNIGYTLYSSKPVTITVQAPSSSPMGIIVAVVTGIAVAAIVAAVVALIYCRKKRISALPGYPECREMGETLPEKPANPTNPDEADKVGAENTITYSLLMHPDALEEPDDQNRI

Kd (mCD16-2 (mouse))	Kd (mCD32b (mouse))	Kd [1]	Kd [2]	Kd [3]	Substance
1.1 µM	2.8 µM				Wild-type huE6F6 (huE6F6-wt) (antibody)
		1.1 µM	2.58 µM	0.805 µM	Wild-type huE6F6 (huE6F6-wt) (from UniProt P01857)
